# Test results from IntAct's records for PubMed 11940652.
# B1: Serine/threonine-protein kinase STE20 (Saccharomyces cerevisiae), Q03497 (parent)
# chain: MSNDPSAVSELPDKDSLDNGISNDNERAMGGNGDGGDGLRLPRTTGTLNVNALQKGTNAAHEAGGYKSMDPAKNAETTNDDDNNVVSLDDPIQFTRVSSSSVISGMSSSMSPHSNIDETKSLEAVTPNINTSNITPDHSADNTFSTINASESDHQFNDTLLSKLSLTDSTETIENNATVKHQQPVASSTVNSNKSSTDIRRATPVSTPVISKPSMTTTPRQINSASHSLSNPKHKQHKPKVKPSKPEAKSKPVSVKKSFPSKNPLKNSSPPKKQTEKSYYSSSSKKRKSGSNSGTLRMKDVFTSFVQNIKRNSQDDKRASSSSNNSSSSSITTALRISTPYNAKHIHHVGVDSKTGEYTGLPEEWEKLLTSSGISKREQQQNMQAVMDIVKFYQDVTETNGEDKMFKTFNTTTGLPGSPQVSTPPANSFNKFPPSTSDSHNYGSRTGTPMSNHVMSPTLNTDSSSANGKFIPSRPAPKPPSSASASAPIIKSPVMNSAANVSPLKQTHAPTTPNRTSPNRSSISRNATLKKEEQPLPPIPPTKSKTSPIISTAHTPQQVAQSPKAPAQETVTTPTSKPAQARSLSKELNEKKREERERRKKQLYAKLNEICSDGDPSTKYANLVKIGQGASGGVYTAYEIGTNVSVAIKQMNLEKQPKKELIINEILVMKGSKHPNIVNFIDSYVLKGDLWVIMEYMEGGSLTDVVTHCILTEGQIGAVCRETLSGLEFLHSKGVLHRDIKSDNILLSMEGDIKLTDFGFCAQINELNLKRTTMVGTPYWMAPEVVSRKEYGPKVDIWSLGIMIIEMIEGEPPYLNETPLRALYLIATNGTPKLKEPENLSSSLKKFLDWCLCVEPEDRASATELLHDEYITEIAEANSSLAPLVKLARLKKVAENMDADEDNDDDNDNEHINKTNNCDDNNDSKETVNLDVTEDDKQK
# Variants of: B1
# Settings: with cdc42_yeast CDC42, P19073
# cdc42_yeast CDC42, P19073, sequence (P19073 whole entry): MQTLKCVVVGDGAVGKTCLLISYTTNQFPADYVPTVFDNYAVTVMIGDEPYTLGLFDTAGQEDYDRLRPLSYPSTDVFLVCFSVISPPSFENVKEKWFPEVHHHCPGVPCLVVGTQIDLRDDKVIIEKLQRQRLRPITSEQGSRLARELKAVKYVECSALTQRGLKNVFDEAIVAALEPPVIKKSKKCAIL
row,Variant,effect of a mutation on the interaction
1,S338A;H345G,decreasing interaction
